According to patent publication US20120264616A1:

Target: receptor for IFN λ expressed by reporter HL116 cells (UniProt Q8IU57)
Experiment: cell-based or functional assay

UniProt Q8IU57, sequence (Q8IU57 21-520 limits assumed): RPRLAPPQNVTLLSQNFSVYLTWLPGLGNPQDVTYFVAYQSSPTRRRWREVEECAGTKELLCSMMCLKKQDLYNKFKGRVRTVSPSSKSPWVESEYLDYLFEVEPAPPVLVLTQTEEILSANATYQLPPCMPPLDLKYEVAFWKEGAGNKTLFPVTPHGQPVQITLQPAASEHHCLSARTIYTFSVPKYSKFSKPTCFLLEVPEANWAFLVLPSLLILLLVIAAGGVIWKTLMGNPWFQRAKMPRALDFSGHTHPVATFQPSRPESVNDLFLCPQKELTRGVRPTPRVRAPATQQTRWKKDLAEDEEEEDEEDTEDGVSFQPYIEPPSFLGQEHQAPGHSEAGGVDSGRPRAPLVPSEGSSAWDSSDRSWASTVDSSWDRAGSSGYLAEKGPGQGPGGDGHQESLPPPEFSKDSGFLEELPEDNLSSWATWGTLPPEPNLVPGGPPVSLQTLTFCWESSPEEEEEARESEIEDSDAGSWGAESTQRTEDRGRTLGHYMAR

“interferon lambda (IFN λ) secreted into the culture supernatant by 293T cell clones transduced with parental lentiviral particles (ligand)” showed a Luc exp 1, clone 1 of 68.2, a Luc exp 1, clone 2 of 73.2 and a Luc exp 1, clone 3 of 80.8. For the same substance, the Luc exp 1, clone 4 was 84.3, the Luc exp 1, clone 5 was 100 and the Luc exp 1, clone 6 was 77.7. It also gave a Luc exp 1, clone 7 of 90.9, a Luc exp 1, clone 8 of 88.9 and a Luc exp 1, clone 9 of 78.7. The Luc exp 1, clone 10 was 89.8, the Luc exp 1, clone 11 was 95.4 and the Luc exp 1, clone 12 was 77.2. The Luc exp 1, clone 13 was 94.4, the Luc exp 1, clone 14 was 89.2 and the Luc exp 1, clone 15 was 87.6. It also gave a Luc exp 1, clone 16 of 81.4, a Luc exp 1, clone 17 of 79.9 and a Luc exp 2, clone 1 of 68.8. It also gave a Luc exp 2, clone 2 of 66.3, a Luc exp 2, clone 3 of 87.3 and a Luc exp 2, clone 4 of 88.1. For the same substance, the Luc exp 2, clone 5 was 97.8, the Luc exp 2, clone 6 was 88.3 and the Luc exp 2, clone 7 was 95.1. It also gave a Luc exp 2, clone 8 of 107, a Luc exp 2, clone 9 of 99.2 and a Luc exp 2, clone 10 of 86.9. The Luc exp 2, clone 11 was 75.8, the Luc exp 2, clone 12 was 91.6 and the Luc exp 2, clone 13 was 94.8. It also gave a Luc exp 2, clone 14 of 72.9, a Luc exp 2, clone 15 of 87.8 and a Luc exp 2, clone 16 of 77.2. It also gave a Luc exp 2, clone 17 of 71.7, a Luciferase average, clone 1 of 68.2 and a Luciferase average, clone 2 of 69.7. For the same substance, the Luciferase average, clone 3 was 84, the Luciferase average, clone 4 was 86.3 and the Luciferase average, clone 5 was 99. For the same substance, the Luciferase average, clone 6 was 83, the Luciferase average, clone 7 was 93 and the Luciferase average, clone 8 was 97.9. For the same substance, the Luciferase average, clone 9 was 89, the Luciferase average, clone 10 was 88.3 and the Luciferase average, clone 11 was 85.6. For the same substance, the Luciferase average, clone 12 was 84.4, the Luciferase average, clone 13 was 94.6 and the Luciferase average, clone 14 was 81.1. For the same substance, the Luciferase average, clone 15 was 87.7, the Luciferase average, clone 16 was 79.3 and the Luciferase average, clone 17 was 75.8.
